Experiment [1] concerns the target T1, FVIII (as used in the competition ELISA of Example 21; form not stated) (UniProt P00451 20-2351, limits assumed).
T1 sequence (looked up): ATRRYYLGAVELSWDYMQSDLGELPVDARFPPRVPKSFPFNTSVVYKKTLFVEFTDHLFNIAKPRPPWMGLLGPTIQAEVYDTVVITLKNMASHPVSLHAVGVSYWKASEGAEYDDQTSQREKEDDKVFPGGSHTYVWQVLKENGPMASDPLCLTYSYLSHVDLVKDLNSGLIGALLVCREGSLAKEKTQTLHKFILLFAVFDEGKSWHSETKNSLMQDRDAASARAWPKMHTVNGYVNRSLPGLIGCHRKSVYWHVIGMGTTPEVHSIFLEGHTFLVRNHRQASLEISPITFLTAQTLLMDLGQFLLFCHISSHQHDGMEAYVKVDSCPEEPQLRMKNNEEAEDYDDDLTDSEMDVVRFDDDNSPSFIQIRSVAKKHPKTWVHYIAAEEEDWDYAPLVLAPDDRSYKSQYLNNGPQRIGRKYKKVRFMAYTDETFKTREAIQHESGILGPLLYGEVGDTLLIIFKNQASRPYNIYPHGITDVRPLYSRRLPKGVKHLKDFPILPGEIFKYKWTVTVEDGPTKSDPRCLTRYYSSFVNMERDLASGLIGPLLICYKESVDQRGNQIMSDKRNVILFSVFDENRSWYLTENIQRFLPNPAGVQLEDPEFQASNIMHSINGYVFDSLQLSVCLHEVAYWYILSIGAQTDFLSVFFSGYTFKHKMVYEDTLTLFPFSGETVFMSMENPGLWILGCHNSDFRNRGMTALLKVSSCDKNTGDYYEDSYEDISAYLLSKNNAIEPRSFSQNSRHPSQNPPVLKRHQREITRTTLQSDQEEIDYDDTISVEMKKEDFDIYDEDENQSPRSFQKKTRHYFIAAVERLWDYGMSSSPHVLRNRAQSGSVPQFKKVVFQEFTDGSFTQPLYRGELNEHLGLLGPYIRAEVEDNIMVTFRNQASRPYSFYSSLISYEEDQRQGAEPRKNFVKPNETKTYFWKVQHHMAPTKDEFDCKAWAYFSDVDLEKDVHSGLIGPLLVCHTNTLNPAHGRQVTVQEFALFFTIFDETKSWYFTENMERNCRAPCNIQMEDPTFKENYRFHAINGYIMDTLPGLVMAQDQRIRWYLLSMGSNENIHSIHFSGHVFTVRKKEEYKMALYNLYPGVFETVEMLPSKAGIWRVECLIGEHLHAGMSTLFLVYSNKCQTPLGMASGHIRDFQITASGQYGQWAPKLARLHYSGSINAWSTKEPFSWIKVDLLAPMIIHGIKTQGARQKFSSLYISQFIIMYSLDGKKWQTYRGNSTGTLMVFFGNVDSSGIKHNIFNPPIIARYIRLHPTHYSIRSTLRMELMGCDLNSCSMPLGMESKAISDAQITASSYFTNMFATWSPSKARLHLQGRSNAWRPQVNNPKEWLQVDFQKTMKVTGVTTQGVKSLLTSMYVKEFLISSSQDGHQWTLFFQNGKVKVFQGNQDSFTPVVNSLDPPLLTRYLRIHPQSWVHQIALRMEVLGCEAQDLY
The experiment in a line: competition ELISA; competitor coated human VWF; FVIII 1 nM pre-incubated with the fragment. On the procedure: In order to investigate the binding of the different VWF fragments to FVIII the following method is used. Briefly, human VWF is coated in a microtiterplate and incubated overnight at 4° C. After blocking, a solution with pre-incubated FVIII (1 nM) and VWF/VWF-fragment is added to the plate, followed by detection with biotinylated anti FVIII antibody and streptavidin-peroxidase S-POD (1:20000). The absorbance is measured at 450/620 nm.
A general note: In an ELISA, binding on a coated surface is turned into a signal by an enzyme label.

Experiment [2] concerns the target T2, FVIII (N8, turoctocog alfa), B domain truncated FVIII (human, UniProt P00451 20-2351).
T2 construct: also called F8; F8-500
T2 sequence: T1 sequence (looked up)
Briefly: SEC-UV (280 nm), Waters Biosuite 4.6x300 mm, 0.3 ml/min, 155 mM NaCl, 10 mM calcium acetate, 10% isopropanol, 25 °C; FVIII 10 µM, fragment 20 µM, 1:2 mixture. On the procedure: Size-exclusion chromatography was performed on a Waters Biosuite 4.6×300 mm column using a flow rate of 0.3 ml/min and a running buffer of 155 mM NaCl, 10 mM Calciumacetat, 10% Isopropanol at 25° C. The absorbance of the effluent was monitored by a UV detector at 280 nm. SEC-UV characterization were performed of FVIII, TIL′/E′/D3/A1 III, TIL′/E′/D3 II, and 1:2 complexes of FVIII—TIL′/E′/D3/A1 III and of FVIII—TIL′/E′/D3 II. Samples of FVIII 10 μM, TIL′/E′/D3/A1 III 20 μM, TIL′/E′/D3 II 20 μM, and in complex were prepared and 15 μL were loaded on to the column.

The target of experiment [3] is T2, FVIII (N8, turoctocog alfa), B domain …. Briefly: isothermal titration calorimetry at 20° C., VWF variant injected into FVIII; ITC at 20° C. On the procedure: (§1) All protein samples are dialyzed in 50 mM Hepes pH 7.4, 150 mM NaCl, 10 mM CaCl₂ buffer. Each iTC experiment involves filling the iTC cell with FVIII (approximately 250 μL) and the syringe with VWF variants (approximately 40 μL). Temperature is set as required and the protein sample is allowed to equilibrate under given experimental conditions (approximately 10 minutes). Typically 17-20 injections (of 2-2.5 μL) of VWF variants into cell, containing FVIII, are performed. The first injection is always of 0.2 μL and is discarded from the final data analysis in order to account for diffusion during equilibration step. Stirring speed is set between 700-1000 rpm. Filter period for data collection is 5 sec with a high feedback mode setting. Each titration is spaced by 120 sec. Appropriate control experiments are performed. Raw data is processed to set baseline and integrated to obtain a final isotherm. This binding isotherm is fit to a single-site model to yield Kd, stoichiometry (n), ΔH, and ΔS values to complete characterization of VWF variant binding to FVIII.
On the technique in general: ITC needs no label: the signal is the heat of the interaction.

For experiment [4] the target is unchanged. The experiment in a line: Isothermal titration calorimetry at 20 °C, VWF fragment in the syringe titrated into FVIII (turoctocog alfa) in the cell, single-site fit; 50 mM Hepes pH 7.4, 150 mM NaCl, 10 mM CaCl2. On the procedure:
as §1

Experiment [5] shares this target. The experiment in a line: isothermal titration calorimetry at 20° C., VWF variant injected into FVIII. On the procedure: as §1
Experiment [6] has as its target T3, Fluorescent labelled FVIII (Oregon green-FVIII) (UniProt P00451 20-2351, limits assumed, Oregon green label).
T3 sequence (looked up): T1 sequence (looked up)
The experiment in a line: cell-based or functional assay.

B1: VWF(764-1045)-ALA-HPC4 monomer (other)
chain: SLSCRPPMVKLVCPADNLRAEGLECTKTCQNYDLECMSMGCVSGCLCPPGMVRHENRCVALERCPCFHQGKEYAPGETVKIGCNTCVCQDRKWNCTDHVCDATCSTIGMAHYLTFDGLKYLFPGECQYVLVQDYCGSNPGTFRILVGNKGCSHPSVKCKKRVTILVEGGEIELFDGEVNVKRPMKDETHFEVVESGRYIILLLGKALSVVWDRHLSISVVLKQTYQEKVCGLCGNFDGIQNNDLTSSNLQVEEDPVDFGNSWKVSSQCADTRKVPLDSSPATALAEDQVDPRLIDGK
notes: also called TIL′/E′/VWD3 III
Take B1: the concentration for half-maximal inhibition (IC50) in experiment [1] was 2000 nM.

B2: VWF(864-1250)-C1099/1142S-ALA-HPC4 monomer (other)
chain: DATCSTIGMAHYLTFDGLKYLFPGECQYVLVQDYCGSNPGTFRILVGNKGCSHPSVKCKKRVTILVEGGEIELFDGEVNVKRPMKDETHFEVVESGRYIILLLGKALSVVWDRHLSISVVLKQTYQEKVCGLCGNFDGIQNNDLTSSNLQVEEDPVDFGNSWKVSSQCADTRKVPLDSSPATCHNNIMKQTMVDSSCRILTSDVFQDCNKLVDPEPYLDVCIYDTCSCESIGDCASFCDTIAAYAHVCAQHGKVVTWRTATLCPQSCEERNLRENGYESEWRYNSCAPACQVTCQHPEPLACPVQCVEGCHAHCPPGKILDELLQTCVDPEDCPVCEVAGRRFASGKKVTLNPSDPEHCQICHCDVVNLTCEACQEPGGLVVPPTDAALAEDQVDPRLIDGK
notes: also called 0001; D3 I
Turning to B2, the IC50 in experiment [1] was 20000 nM.

B3: VWF(764-1261)-C1099/1142S-ALA-HPC4 monomer (other)
chain: SLSCRPPMVKLVCPADNLRAEGLECTKTCQNYDLECMSMGCVSGCLCPPGMVRHENRCVALERCPCFHQGKEYAPGETVKIGCNTCVCQDRKWNCTDHVCDATCSTIGMAHYLTFDGLKYLFPGECQYVLVQDYCGSNPGTFRILVGNKGCSHPSVKCKKRVTILVEGGEIELFDGEVNVKRPMKDETHFEVVESGRYIILLLGKALSVVWDRHLSISVVLKQTYQEKVCGLCGNFDGIQNNDLTSSNLQVEEDPVDFGNSWKVSSQCADTRKVPLDSSPATCHNNIMKQTMVDSSCRILTSDVFQDCNKLVDPEPYLDVCIYDTCSCESIGDCASFCDTIAAYAHVCAQHGKVVTWRTATLCPQSCEERNLRENGYESEWRYNSCAPACQVTCQHPEPLACPVQCVEGCHAHCPPGKILDELLQTCVDPEDCPVCEVAGRRFASGKKVTLNPSDPEHCQICHCDVVNLTCEACQEPGGLVVPPTDAPVSPTTLYVEDALAEDQVDPRLIDGK
notes: also called 2309; TIL′/E′/D3 II
On to B3, for which the binding result in experiment [2] is “binds”.

B4: VWF(764-865)-ALA-HPC4 monomer (other)
chain: SLSCRPPMVKLVCPADNLRAEGLECTKTCQNYDLECMSMGCVSGCLCPPGMVRHENRCVALERCPCFHQGKEYAPGETVKIGCNTCVCQDRKWNCTDHVCDAALAEDQVDPRLIDGK
notes: also called TIL′E′
B4: the Kd in experiment [3] came out at 330 nM. In addition, in experiment [1], the IC50 came out at 2000 nM. For the same molecule, the Ka in experiment [4] turned out to be 3.02e+06 M⁻¹. In experiment [5], this molecule displayed a stoichiometry of 1.14, a ΔH of -5.82 kcal/mol and a ΔS of 9.8 cal/mol/deg.

B5: VWF(764-1041)-ALA-HPC4 monomer (other)
chain: SLSCRPPMVKLVCPADNLRAEGLECTKTCQNYDLECMSMGCVSGCLCPPGMVRHENRCVALERCPCFHQGKEYAPGETVKIGCNTCVCQDRKWNCTDHVCDATCSTIGMAHYLTFDGLKYLFPGECQYVLVQDYCGSNPGTFRILVGNKGCSHPSVKCKKRVTILVEGGEIELFDGEVNVKRPMKDETHFEVVESGRYIILLLGKALSVVWDRHLSISVVLKQTYQEKVCGLCGNFDGIQNNDLTSSNLQVEEDPVDFGNSWKVSSQCADTRKVPLDSALAEDQVDPRLIDGK
notes: also called 2306; TIL′/E′/VWD3 II
Turning to B5, the “IC50 (nM), FVIII uptake in dendritic cells” value in experiment [6] amounted to 570 nM. Besides, the IC50 in experiment [1] was 2200 nM.

B6: VWF(764-1250)-C1099/1142S-ALA-HPC4 monomer (other)
chain: SLSCRPPMVKLVCPADNLRAEGLECTKTCQNYDLECMSMGCVSGCLCPPGMVRHENRCVALERCPCFHQGKEYAPGETVKIGCNTCVCQDRKWNCTDHVCDATCSTIGMAHYLTFDGLKYLFPGECQYVLVQDYCGSNPGTFRILVGNKGCSHPSVKCKKRVTILVEGGEIELFDGEVNVKRPMKDETHFEVVESGRYIILLLGKALSVVWDRHLSISVVLKQTYQEKVCGLCGNFDGIQNNDLTSSNLQVEEDPVDFGNSWKVSSQCADTRKVPLDSSPATCHNNIMKQTMVDSSCRILTSDVFQDCNKLVDPEPYLDVCIYDTCSCESIGDCASFCDTIAAYAHVCAQHGKVVTWRTATLCPQSCEERNLRENGYESEWRYNSCAPACQVTCQHPEPLACPVQCVEGCHAHCPPGKILDELLQTCVDPEDCPVCEVAGRRFASGKKVTLNPSDPEHCQICHCDVVNLTCEACQEPGGLVVPPTDAALAEDQVDPRLIDGK
notes: also called TIL′/E′/D3 I
As to B6, in experiment [6], the “IC50 (nM), FVIII uptake in dendritic cells” value worked out at 31 nM. In experiment [1], the IC50 was determined as 12 nM.

B7: VWF(764-1198)-C1099/1142S-ALA-HPC4 monomer (other)
chain: SLSCRPPMVKLVCPADNLRAEGLECTKTCQNYDLECMSMGCVSGCLCPPGMVRHENRCVALERCPCFHQGKEYAPGETVKIGCNTCVCQDRKWNCTDHVCDATCSTIGMAHYLTFDGLKYLFPGECQYVLVQDYCGSNPGTFRILVGNKGCSHPSVKCKKRVTILVEGGEIELFDGEVNVKRPMKDETHFEVVESGRYIILLLGKALSVVWDRHLSISVVLKQTYQEKVCGLCGNFDGIQNNDLTSSNLQVEEDPVDFGNSWKVSSQCADTRKVPLDSSPATCHNNIMKQTMVDSSCRILTSDVFQDCNKLVDPEPYLDVCIYDTCSCESIGDCASFCDTIAAYAHVCAQHGKVVTWRTATLCPQSCEERNLRENGYESEWRYNSCAPACQVTCQHPEPLACPVQCVEGCHAHCPPGKILDELLQTCVDPEDCPVALAEDQVDPRLIDGK
notes: also called 0003; TIL′/E′/VWD3/C8-3/TIL-3
B7 showed an IC50 in experiment [1] of 28 nM.

What is called IC50 is the concentration at which inhibition is half-maximal. What is called Kd is the constant that tells how readily two partners part at equilibrium.

The values are drawn from US20140018297A1 (Novo Nordisk, published 2014).
